Reference: paper PMC2816676, “DNA Binding of Centromere Protein C (CENPC) Is Stabilized by Single-Stranded RNA”

Tests used:
[1] = target: T1, CENPC full length (Zea mays) (UniProt Q9XHE1); assay: EMSA; details: 10 mM Tris pH 7.5, 50 mM NaCl, 0.5 mM DTT, 0.5 mM EDTA, 1 mM MgCl2, 4% glycerol, 20 µl, on ice 20 min; 5% PAGE
T1 sequence: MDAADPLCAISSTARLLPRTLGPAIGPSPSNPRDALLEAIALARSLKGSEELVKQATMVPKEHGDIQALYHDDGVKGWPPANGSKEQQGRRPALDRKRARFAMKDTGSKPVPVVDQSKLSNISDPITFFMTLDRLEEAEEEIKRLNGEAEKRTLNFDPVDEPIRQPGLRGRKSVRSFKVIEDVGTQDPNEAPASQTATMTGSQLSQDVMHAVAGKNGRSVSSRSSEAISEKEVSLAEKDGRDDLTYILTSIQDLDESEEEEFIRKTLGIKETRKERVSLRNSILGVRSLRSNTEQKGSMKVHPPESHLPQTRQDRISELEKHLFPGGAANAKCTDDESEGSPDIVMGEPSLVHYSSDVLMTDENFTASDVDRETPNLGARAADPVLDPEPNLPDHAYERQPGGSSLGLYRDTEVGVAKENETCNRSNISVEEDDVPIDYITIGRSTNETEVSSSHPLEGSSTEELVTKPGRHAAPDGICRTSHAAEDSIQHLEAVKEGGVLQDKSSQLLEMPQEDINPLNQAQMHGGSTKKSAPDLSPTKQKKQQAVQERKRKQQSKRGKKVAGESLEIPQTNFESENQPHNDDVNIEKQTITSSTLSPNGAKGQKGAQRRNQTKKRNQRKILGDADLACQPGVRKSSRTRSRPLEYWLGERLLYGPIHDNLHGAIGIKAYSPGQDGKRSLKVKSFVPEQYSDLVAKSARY

[2] = target: HIV integrase DNA-binding domain (IntBD) (HIV, UniProt Q9WJL1 220-270); assay: EMSA; no RNA; 10 mM Tris pH 7.5, 50 mM NaCl, 0.5 mM DTT, 0.5 mM EDTA, 1 mM MgCl2, 4% glycerol, 20 µl, on ice 20 min; 5% PAGE; details: chain copies: 2; blunt
CENPC exon 1-5.7 = target: T2, CENPC exon 1-5.7 (Zea mays, UniProt Q9XHE1 1-399); assay: EMSA; 10 mM Tris pH 7.5, 50 mM NaCl, 0.5 mM DTT, 0.5 mM EDTA, 1 mM MgCl2, 4% glycerol, 20 µl, on ice 20 min; 5% PAGE; details: protein: recombinant; tags: His (pET28a); blunt
T2 sequence: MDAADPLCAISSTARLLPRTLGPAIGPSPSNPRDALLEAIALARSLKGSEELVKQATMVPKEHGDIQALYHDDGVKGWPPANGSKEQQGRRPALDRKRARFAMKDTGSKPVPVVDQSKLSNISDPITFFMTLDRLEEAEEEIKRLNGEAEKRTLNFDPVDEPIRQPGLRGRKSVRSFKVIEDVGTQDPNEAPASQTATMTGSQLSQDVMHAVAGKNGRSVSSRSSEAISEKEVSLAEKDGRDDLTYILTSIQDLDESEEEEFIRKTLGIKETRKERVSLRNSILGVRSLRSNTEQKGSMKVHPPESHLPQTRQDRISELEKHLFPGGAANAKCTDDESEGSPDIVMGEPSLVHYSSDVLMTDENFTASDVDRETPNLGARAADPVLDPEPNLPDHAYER

CENPC Δexon 9-12 = target: T3, CENPC Δexon 9-12 (Zea mays, UniProt Q9XHE1 1-701, del503-624); assay: as above; details: protein: recombinant; tags: His (pET28a); blunt
T3 sequence: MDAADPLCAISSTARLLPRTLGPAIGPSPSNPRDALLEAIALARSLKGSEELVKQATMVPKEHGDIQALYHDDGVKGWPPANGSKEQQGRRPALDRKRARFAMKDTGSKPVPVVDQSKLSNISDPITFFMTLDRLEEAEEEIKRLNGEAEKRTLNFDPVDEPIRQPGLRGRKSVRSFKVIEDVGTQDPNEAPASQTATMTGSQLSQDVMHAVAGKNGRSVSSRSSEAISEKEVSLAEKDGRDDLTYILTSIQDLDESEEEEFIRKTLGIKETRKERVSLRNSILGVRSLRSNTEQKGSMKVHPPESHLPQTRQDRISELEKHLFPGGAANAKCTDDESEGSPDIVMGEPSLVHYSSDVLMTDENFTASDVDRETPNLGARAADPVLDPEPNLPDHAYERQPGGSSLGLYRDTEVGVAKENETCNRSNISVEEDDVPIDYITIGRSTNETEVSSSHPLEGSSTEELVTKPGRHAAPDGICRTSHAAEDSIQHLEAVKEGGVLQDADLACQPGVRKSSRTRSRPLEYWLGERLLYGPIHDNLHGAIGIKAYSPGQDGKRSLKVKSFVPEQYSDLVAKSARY

CENPC exon 1-8 = target: T4, CENPC exon 1-8 (Zea mays, UniProt Q9XHE1 1-502); assay: as above; details: protein: recombinant; tags: His (pET28a); blunt
T4 sequence: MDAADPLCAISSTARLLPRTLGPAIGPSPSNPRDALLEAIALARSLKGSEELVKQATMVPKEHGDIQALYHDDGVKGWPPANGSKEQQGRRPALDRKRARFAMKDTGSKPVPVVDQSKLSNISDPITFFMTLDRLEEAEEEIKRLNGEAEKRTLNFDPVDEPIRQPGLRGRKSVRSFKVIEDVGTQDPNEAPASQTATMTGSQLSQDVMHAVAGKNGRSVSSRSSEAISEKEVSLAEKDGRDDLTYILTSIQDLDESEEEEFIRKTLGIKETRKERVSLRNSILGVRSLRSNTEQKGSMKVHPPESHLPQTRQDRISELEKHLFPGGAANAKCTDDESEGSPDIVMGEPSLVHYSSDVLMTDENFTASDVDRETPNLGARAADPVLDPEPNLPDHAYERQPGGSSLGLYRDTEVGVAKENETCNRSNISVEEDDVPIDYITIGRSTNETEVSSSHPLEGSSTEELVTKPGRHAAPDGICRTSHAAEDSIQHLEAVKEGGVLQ

Molecule	binding signal [1]	binding result [2]	binding result (CENPC exon 1-5.7)	binding result (CENPC Δexon 9-12)	binding result (CENPC exon 1-8)
CentC 67 bp DSDNA	85.3 % bound	–	–	–	–
CentC 156 bp DSDNA	95.9 % bound	–	–	–	–
CentC 44 bp DSDNA (dsDNA) DNA 1: AATGGGTGACGTGCGGCAACGAAATTGCGCGAAACCACCCCAAA DNA 2: TTTGGGGTGGTTTCGCGCAATTTCGTTGCCGCACGTCACCCATT	–	binds	no binding	no binding	no binding
